Measured values reported in patent publication US20060272037A1.

Target: Alpha2a adrenergic receptor-cam "chameleon" (mouse)
Experiment: cell-based or functional assay

For purified Go protein, the Kd of the agonist [^3H]UK14304 on membranes containing α2AAR-cam after addition of purified Go was 3.4 nM, the Kd of the agonist [^3H]UK14304 on the same membranes with Go after addition of GTPγS was 9.6 nM and the reduction by GTPγS of the FRET signal caused by 5 nM UK14304 in the presence of Go was greater than 50%. It also gave a reduction by GTPγS of the binding of 5 nM [^3H]UK14304 in the presence of Go greater than 50%.
